This note sets out measurements from the RNAGym collection of RNA variant scans (doi:10.7554/elife.80360).

B1: CPEB3 Ribozyme (parent)
chain: GGGGGCCACAGCAGAAGCGUUCACGUCGCGGCCCCUGUCAGAUUCUGGUGAAUCUGCGAAUUCUGCUGU

In the series the parent is B1. Put plainly: self-cleavage, relative activity (ratio to wild type); higher = more cleavage; co-transcriptional.
Take C18A C54G: the self-cleavage amounted to 0.179.

C18A C54U: the self-cleavage was 0.173.

On to C18G U62A, for which the self-cleavage came to 0.142.

For C18G U62C, the self-cleavage came out at 0.122.

Take C18A U67G: the self-cleavage amounted to 0.348.

C18A U67C: the self-cleavage was found to be 0.23.

As to C18A U67A, the self-cleavage is 0.268.

For the variant C18U A51U, the self-cleavage is 0.851.

For the variant C18U A51G, the self-cleavage stood at 0.853.

As for C18A G48U, the self-cleavage was determined as 0.186.

Regarding G17U U49G, the self-cleavage is 0.455.

For G17U U49C, the self-cleavage was 0.554.

Turning to G17U U49A, the self-cleavage came to 0.662.

With C18A G50C, the self-cleavage was 0.208.

C18A G50A: the self-cleavage was found to be 0.191.

On to C18A G50U, for which the self-cleavage was 0.284.

Consider C18U, for which the self-cleavage is 0.926.

As to C18A, the self-cleavage came to 0.2.

Regarding C18G, the self-cleavage came out at 0.188.

For C18G C34U, the self-cleavage stood at 0.133.

In the case of C18G C34G, the self-cleavage worked out at 0.153.

For the variant C18G C34A, the self-cleavage was 0.131.

Turning to G17U G68A, the self-cleavage turned out to be 0.875.

For C18A C45A, the self-cleavage was 0.0998.

For the variant C18A C45G, the self-cleavage is 0.179.

Turning to C18A C45U, the self-cleavage stood at 0.21.

In the case of C18U C32U, the self-cleavage was 0.87.

For the variant C18U C32A, the self-cleavage came to 0.381.

On to G17U G25A, for which the self-cleavage came to 0.143.

G17U G25C: the self-cleavage was 0.107.

As for C18U C27A, the self-cleavage is 0.198.

Consider C18U C27U, for which the self-cleavage came out at 0.121.

Turning to C18U C27G, the self-cleavage turned out to be 0.194.

In the case of C18A U26A, the self-cleavage amounted to 0.128.

C18U C63G: the self-cleavage was 0.306.

Consider C18U C63U, for which the self-cleavage worked out at 0.678.

For C18U C63A, the self-cleavage turned out to be 0.284.

For the variant C18A A52G, the self-cleavage was found to be 0.201.

With C18A A52U, the self-cleavage was found to be 0.258.

Turning to C18G C66A, the self-cleavage came to 0.11.

As for C18G G47A, the self-cleavage came to 0.21.

With C18A A51U, the self-cleavage is 0.181.

Take C18A A51G: the self-cleavage was 0.233.

For the variant G17U U26A, the self-cleavage came out at 0.312.

As to G17U U26G, the self-cleavage turned out to be 0.297.

For the variant G17U U26C, the self-cleavage was 0.286.

As to C18G U49C, the self-cleavage turned out to be 0.147.

For C18G U49G, the self-cleavage stood at 0.217.

Consider C18A U20C, for which the self-cleavage was 0.158.

Turning to G17U G56A, the self-cleavage amounted to 0.32.

Regarding G17U G56C, the self-cleavage worked out at 0.219.

On to G17U G56U, for which the self-cleavage was 0.2.

For the variant G17U U43C, the self-cleavage was 0.446.

Regarding C18G C29A, the self-cleavage was found to be 0.16.

Turning to C18G C29U, the self-cleavage was found to be 0.156.

Turning to C18G G25C, the self-cleavage worked out at 0.092.

In the case of C18G G25U, the self-cleavage came out at 0.151.

For C18G A60C, the self-cleavage amounted to 0.0758.

C18G A60G: the self-cleavage amounted to 0.137.

As for C18G A60U, the self-cleavage amounted to 0.154.

Take C18A U61G: the self-cleavage was 0.166.

Turning to C18A U61A, the self-cleavage turned out to be 0.138.

As to C18U A23G, the self-cleavage turned out to be 0.715.

As for C18U A23U, the self-cleavage was determined as 0.877.

For C18U A23C, the self-cleavage is 0.746.

Regarding C18A C24A, the self-cleavage amounted to 0.142.

As for C18A C24U, the self-cleavage stood at 0.0604.

On to C18A G56C, for which the self-cleavage came out at 0.186.

Turning to G17U G19U, the self-cleavage worked out at 0.123.

On to G17U G19A, for which the self-cleavage turned out to be 0.209.

On to C18U A52G, for which the self-cleavage amounted to 0.923.

As to C18U A52U, the self-cleavage was 0.87.

For the variant C18U A52C, the self-cleavage amounted to 0.759.

For C18A C29G, the self-cleavage was 0.15.

In the case of C18A A42C, the self-cleavage was determined as 0.166.

With C18A A42U, the self-cleavage was found to be 0.0858.

Turning to C18G U26G, the self-cleavage is 0.267.

As to C18G U26A, the self-cleavage is 0.119.

As for C18G U26C, the self-cleavage stood at 0.175.

G17U G48C: the self-cleavage came out at 0.635.

As to G17U G48U, the self-cleavage came out at 0.694.

Take C18A C27A: the self-cleavage is 0.163.

Turning to C18A G65U, the self-cleavage is 0.102.

As to C18A G65A, the self-cleavage stood at 0.148.

For the variant C18A C39A, the self-cleavage stood at 0.156.

In the case of C18A C39G, the self-cleavage came to 0.142.

Turning to C18A C39U, the self-cleavage was 0.136.

As to C18U C35A, the self-cleavage stood at 0.24.

Regarding C18U C35G, the self-cleavage stood at 0.281.

Turning to C18G U67A, the self-cleavage came out at 0.205.

Regarding C18G U67C, the self-cleavage was found to be 0.186.

On to C18U C22G, for which the self-cleavage is 0.197.

In the case of C18U C22U, the self-cleavage worked out at 0.108.

On to C18U C34A, for which the self-cleavage amounted to 0.352.

C18G U21G: the self-cleavage is 0.174.

For the variant C18G U21C, the self-cleavage was found to be 0.219.

For the variant C18U C33U, the self-cleavage came to 0.821.

Consider C18A U64G, for which the self-cleavage is 0.178.

G17U G58U: the self-cleavage amounted to 0.65.

Turning to G17U G58C, the self-cleavage was determined as 0.527.

Take C18A A40U: the self-cleavage is 0.0764.

In the case of C18A A40G, the self-cleavage worked out at 0.176.

For G17U G50U, the self-cleavage was 0.552.

Regarding G17U G50A, the self-cleavage was 0.571.

For the variant G17U G50C, the self-cleavage came out at 0.386.

As to C18A C35G, the self-cleavage was 0.104.

For C18A C35U, the self-cleavage is 0.222.

On to C18G A52U, for which the self-cleavage is 0.0952.

Take C18A G28C: the self-cleavage was 0.426.

Take C18A G28U: the self-cleavage was 0.889.

C18A G28A: the self-cleavage stood at 0.12.

As to C18A U69G, the self-cleavage was found to be 0.307.

For the variant C18A U69A, the self-cleavage is 0.302.

For the variant G17U U44C, the self-cleavage amounted to 0.368.

Consider G17U U44A, for which the self-cleavage was 0.395.

As for C18U A40C, the self-cleavage turned out to be 0.197.

Regarding C18A U55A, the self-cleavage was 0.142.

Take C18A U55G: the self-cleavage amounted to 0.113.

With C18U G50A, the self-cleavage came to 0.906.

In the case of C18A U49G, the self-cleavage was determined as 0.259.

Take C18A U43G: the self-cleavage is 0.117.

For C18A U43A, the self-cleavage came out at 0.117.

In the case of C18A G58U, the self-cleavage was 0.184.

As to C18A G58A, the self-cleavage was 0.155.

For the variant C18U C54U, the self-cleavage was determined as 0.852.

Consider C18U C54A, for which the self-cleavage came out at 0.305.

For C18U C54G, the self-cleavage was found to be 0.456.

On to C18G C33U, for which the self-cleavage came to 0.226.

Regarding C18G C33A, the self-cleavage amounted to 0.193.

For C18G C33G, the self-cleavage amounted to 0.147.

C18A C33U: the self-cleavage was 0.251.

Turning to C18A C33G, the self-cleavage came to 0.123.

With G17U G37A, the self-cleavage worked out at 0.175.

Turning to G17U G37C, the self-cleavage was determined as 0.159.

For G17U G37U, the self-cleavage was found to be 0.169.

With C18A U21A, the self-cleavage stood at 0.107.

Regarding C18A U21C, the self-cleavage was 0.181.

Consider C18A U21G, for which the self-cleavage amounted to 0.109.

For the variant C18A G41U, the self-cleavage turned out to be 0.211.

With C18A G41C, the self-cleavage is 0.119.

With C18A C22G, the self-cleavage was 0.159.

C18A C22U: the self-cleavage worked out at 0.0813.

In the case of C18A C22A, the self-cleavage was found to be 0.144.

Regarding C18U A59G, the self-cleavage stood at 0.793.

C18G G58C: the self-cleavage is 0.154.

Turning to C18G G58U, the self-cleavage was found to be 0.176.

For the variant C18U G37C, the self-cleavage stood at 0.13.

Consider C18U G37A, for which the self-cleavage came to 0.193.

Regarding C18G G56U, the self-cleavage came to 0.128.

On to C18G C27G, for which the self-cleavage was 0.224.

Take C18G C27A: the self-cleavage was 0.16.

In the case of C18A C34A, the self-cleavage worked out at 0.145.

Take C18A U46A: the self-cleavage is 0.217.

Regarding C18A U46G, the self-cleavage worked out at 0.219.

C18U A60G: the self-cleavage was 0.809.

In the case of C18U C66A, the self-cleavage was determined as 0.297.

Regarding C18U C66U, the self-cleavage stood at 0.704.

For the variant C18G A42U, the self-cleavage stood at 0.137.

As for C18G A42G, the self-cleavage was 0.229.

For the variant C18A A23G, the self-cleavage was 0.171.

As to C18U G30U, the self-cleavage came to 0.192.

Take C18U G30C: the self-cleavage came out at 0.222.

For G17U G30C, the self-cleavage is 0.119.

With G17U G30U, the self-cleavage was 0.168.

Consider C18A A59C, for which the self-cleavage worked out at 0.0942.

Consider C18G U38C, for which the self-cleavage amounted to 0.234.

On to C18G U38G, for which the self-cleavage is 0.155.
